The chains are these.
B1: Variant A2M, bait region SEQ ID NO 139, P01023 24-1474 (protein)
chain: SVSGKPQYMVLVPSLLHTETTEKGCVLLSYLNETVTVSASLESVRGNRSLFTDLEAENDVLHCVAFAVPKSSSNEEVMFLTVQVKGPTQEFKKRTTVMVKNEDSLVFVQTDKSIYKPGQTVKFRVVSMDENFHPLNELIPLVYIQDPKGNRIAQWQSFQLEGGLKQFSFPLSSEPFQGSYKVVVQKKSGGRTEHPFTVEEFVLPKFEVQVTVPKIITILEEEMNVSVCGLYTYGKPVPGHVTVSICRKYSDASDCHGEDSQAFCEKFSGQLNSHGCFYQQVKTKVFQLKRKEYEMKLHTEAQIQEEGTVVELTGRQSSEITRTITKLSFVKVDSHFRQGIPFFGQVRLVDGKGVPIPNKVIFIRGNEANYYSNATTDEHGLVQFSINTTNVMGTSLTVRVNYKDRSPCYGYQWVSEEHEEAHHTAYLVFSPSKSFVHLEPMSHELPCGHTQTVQAHYILNGGTLLGLKKLSFYYLIMAKGGIVRTGTHGLLVKQEDMKGHFSISIPVKSDIAPVARLLIYAVLPTGDVIGDSAKYDVENCLANKVDLSFSPSQSLPASHAHLRVTAAPQSVCALRAVDQSVLLMKPDAELSASSVYNLLPEKDLTGFPGPLNDQDDEDCINRHNVYINGITYTPVSSTNEKDMYSFLEDMGLKAFTNSKIRKPKMCPQLEQYEMHGPSEDLVVQIEGEGEGEGIPENFFGVEAIPMSIPTEPHTKLRKYFPETWIWDLVVVNSAGVAEVGVTVPDTITEWKAGAFCLSEDAGLGISSTASLRAFQPFFVELTMPYSVIRGEAFTLKATVLNYLPKCIRVSVQLEASPAFLAVPVEKEQAPHCICANGRQTVSWAVTPKSLGNVNFTVSAEALESQELCGTEVPSVPEHGRKDTVIKPLLVEPEGLEKETTFNSLLCPSGGEVSEELSLKLPPNVVEESARASVSVLGDILGSAMQNTQNLLQMPYGCGEQNMVLFAPNIYVLDYLNETQQLTPEIKSKAIGYLNTGYQRQLNYKHYDGSYSTFGERYGRNQGNTWLTAFVLKTFAQARAYIFIDEAHITQALIWLSQRQKDNGCFRSSGSLLNNAIKGGVEDEVTLSAYITIALLEIPLTVTHPVVRNALFCLESAWKTAQEGDHGSHVYTKALLAYAFALAGNQDKRKEVLKSLNEEAVKKDNSVHWERPQKPKAPVGHFYEPQAPSAEVEMTSYVLLAYLTAQPAPTSEDLTSATNIVKWITKQQNAQGGFSSTQDTVVALHALSKYGAATFTRTGKAAQVTIQSSGTFSSKFQVDNNNRLLLQQVSLPELPGEYSMKVTGEGCVYLQTSLKYNILPEKEEFPFALGVQTLPQTCDEPKAHTSFQISLSVSYTGSRSASNMAIVDVKMVSGFIPLKPTVKMLERSNHVSRTEVSSNHVLIYLDKVSNQTLSLFFTVLQDVPVRDLKPAIVKVYDYYETDEFAIAEYNAPCSKDLGNADYKDDDDKGASHHHHHH
B2: Variant A2M, bait region SEQ ID NO 142, P01023 24-1474 (protein)
chain: SVSGKPQYMVLVPSLLHTETTEKGCVLLSYLNETVTVSASLESVRGNRSLFTDLEAENDVLHCVAFAVPKSSSNEEVMFLTVQVKGPTQEFKKRTTVMVKNEDSLVFVQTDKSIYKPGQTVKFRVVSMDENFHPLNELIPLVYIQDPKGNRIAQWQSFQLEGGLKQFSFPLSSEPFQGSYKVVVQKKSGGRTEHPFTVEEFVLPKFEVQVTVPKIITILEEEMNVSVCGLYTYGKPVPGHVTVSICRKYSDASDCHGEDSQAFCEKFSGQLNSHGCFYQQVKTKVFQLKRKEYEMKLHTEAQIQEEGTVVELTGRQSSEITRTITKLSFVKVDSHFRQGIPFFGQVRLVDGKGVPIPNKVIFIRGNEANYYSNATTDEHGLVQFSINTTNVMGTSLTVRVNYKDRSPCYGYQWVSEEHEEAHHTAYLVFSPSKSFVHLEPMSHELPCGHTQTVQAHYILNGGTLLGLKKLSFYYLIMAKGGIVRTGTHGLLVKQEDMKGHFSISIPVKSDIAPVARLLIYAVLPTGDVIGDSAKYDVENCLANKVDLSFSPSQSLPASHAHLRVTAAPQSVCALRAVDQSVLLMKPDAELSASSVYNLLPEKDLTGFPGPLNDQDDEDCINRHNVYINGITYTPVSSTNEKDMYSFLEDMGLKAFTNSKIRKPKMCPQLEQYEMHGPSELEGRGSIPENFFGVEGEGEGEGKEEEGLGSVEEPHTKLRKYFPETWIWDLVVVNSAGVAEVGVTVPDTITEWKAGAFCLSEDAGLGISSTASLRAFQPFFVELTMPYSVIRGEAFTLKATVLNYLPKCIRVSVQLEASPAFLAVPVEKEQAPHCICANGRQTVSWAVTPKSLGNVNFTVSAEALESQELCGTEVPSVPEHGRKDTVIKPLLVEPEGLEKETTFNSLLCPSGGEVSEELSLKLPPNVVEESARASVSVLGDILGSAMQNTQNLLQMPYGCGEQNMVLFAPNIYVLDYLNETQQLTPEIKSKAIGYLNTGYQRQLNYKHYDGSYSTFGERYGRNQGNTWLTAFVLKTFAQARAYIFIDEAHITQALIWLSQRQKDNGCFRSSGSLLNNAIKGGVEDEVTLSAYITIALLEIPLTVTHPVVRNALFCLESAWKTAQEGDHGSHVYTKALLAYAFALAGNQDKRKEVLKSLNEEAVKKDNSVHWERPQKPKAPVGHFYEPQAPSAEVEMTSYVLLAYLTAQPAPTSEDLTSATNIVKWITKQQNAQGGFSSTQDTVVALHALSKYGAATFTRTGKAAQVTIQSSGTFSSKFQVDNNNRLLLQQVSLPELPGEYSMKVTGEGCVYLQTSLKYNILPEKEEFPFALGVQTLPQTCDEPKAHTSFQISLSVSYTGSRSASNMAIVDVKMVSGFIPLKPTVKMLERSNHVSRTEVSSNHVLIYLDKVSNQTLSLFFTVLQDVPVRDLKPAIVKVYDYYETDEFAIAEYNAPCSKDLGNADYKDDDDKGASHHHHHH
B3: Variant A2M, bait region SEQ ID NO 137, P01023 24-1474 (protein)
chain: SVSGKPQYMVLVPSLLHTETTEKGCVLLSYLNETVTVSASLESVRGNRSLFTDLEAENDVLHCVAFAVPKSSSNEEVMFLTVQVKGPTQEFKKRTTVMVKNEDSLVFVQTDKSIYKPGQTVKFRVVSMDENFHPLNELIPLVYIQDPKGNRIAQWQSFQLEGGLKQFSFPLSSEPFQGSYKVVVQKKSGGRTEHPFTVEEFVLPKFEVQVTVPKIITILEEEMNVSVCGLYTYGKPVPGHVTVSICRKYSDASDCHGEDSQAFCEKFSGQLNSHGCFYQQVKTKVFQLKRKEYEMKLHTEAQIQEEGTVVELTGRQSSEITRTITKLSFVKVDSHFRQGIPFFGQVRLVDGKGVPIPNKVIFIRGNEANYYSNATTDEHGLVQFSINTTNVMGTSLTVRVNYKDRSPCYGYQWVSEEHEEAHHTAYLVFSPSKSFVHLEPMSHELPCGHTQTVQAHYILNGGTLLGLKKLSFYYLIMAKGGIVRTGTHGLLVKQEDMKGHFSISIPVKSDIAPVARLLIYAVLPTGDVIGDSAKYDVENCLANKVDLSFSPSQSLPASHAHLRVTAAPQSVCALRAVDQSVLLMKPDAELSASSVYNLLPEKDLTGFPGPLNDQDDEDCINRHNVYINGITYTPVSSTNEKDMYSFLEDMGLKAFTNSKIRKPKMCPQLEQYEMHGPSEDLVVQIKEEEGLGSIPENFFGVSELEGRGSVEEPHTKLRKYFPETWIWDLVVVNSAGVAEVGVTVPDTITEWKAGAFCLSEDAGLGISSTASLRAFQPFFVELTMPYSVIRGEAFTLKATVLNYLPKCIRVSVQLEASPAFLAVPVEKEQAPHCICANGRQTVSWAVTPKSLGNVNFTVSAEALESQELCGTEVPSVPEHGRKDTVIKPLLVEPEGLEKETTFNSLLCPSGGEVSEELSLKLPPNVVEESARASVSVLGDILGSAMQNTQNLLQMPYGCGEQNMVLFAPNIYVLDYLNETQQLTPEIKSKAIGYLNTGYQRQLNYKHYDGSYSTFGERYGRNQGNTWLTAFVLKTFAQARAYIFIDEAHITQALIWLSQRQKDNGCFRSSGSLLNNAIKGGVEDEVTLSAYITIALLEIPLTVTHPVVRNALFCLESAWKTAQEGDHGSHVYTKALLAYAFALAGNQDKRKEVLKSLNEEAVKKDNSVHWERPQKPKAPVGHFYEPQAPSAEVEMTSYVLLAYLTAQPAPTSEDLTSATNIVKWITKQQNAQGGFSSTQDTVVALHALSKYGAATFTRTGKAAQVTIQSSGTFSSKFQVDNNNRLLLQQVSLPELPGEYSMKVTGEGCVYLQTSLKYNILPEKEEFPFALGVQTLPQTCDEPKAHTSFQISLSVSYTGSRSASNMAIVDVKMVSGFIPLKPTVKMLERSNHVSRTEVSSNHVLIYLDKVSNQTLSLFFTVLQDVPVRDLKPAIVKVYDYYETDEFAIAEYNAPCSKDLGNADYKDDDDKGASHHHHHH
B4: Variant A2M, bait region SEQ ID NO 138, P01023 24-1474 (protein)
chain: SVSGKPQYMVLVPSLLHTETTEKGCVLLSYLNETVTVSASLESVRGNRSLFTDLEAENDVLHCVAFAVPKSSSNEEVMFLTVQVKGPTQEFKKRTTVMVKNEDSLVFVQTDKSIYKPGQTVKFRVVSMDENFHPLNELIPLVYIQDPKGNRIAQWQSFQLEGGLKQFSFPLSSEPFQGSYKVVVQKKSGGRTEHPFTVEEFVLPKFEVQVTVPKIITILEEEMNVSVCGLYTYGKPVPGHVTVSICRKYSDASDCHGEDSQAFCEKFSGQLNSHGCFYQQVKTKVFQLKRKEYEMKLHTEAQIQEEGTVVELTGRQSSEITRTITKLSFVKVDSHFRQGIPFFGQVRLVDGKGVPIPNKVIFIRGNEANYYSNATTDEHGLVQFSINTTNVMGTSLTVRVNYKDRSPCYGYQWVSEEHEEAHHTAYLVFSPSKSFVHLEPMSHELPCGHTQTVQAHYILNGGTLLGLKKLSFYYLIMAKGGIVRTGTHGLLVKQEDMKGHFSISIPVKSDIAPVARLLIYAVLPTGDVIGDSAKYDVENCLANKVDLSFSPSQSLPASHAHLRVTAAPQSVCALRAVDQSVLLMKPDAELSASSVYNLLPEKDLTGFPGPLNDQDDEDCINRHNVYINGITYTPVSSTNEKDMYSFLEDMGLKAFTNSKIRKPKMCPQLEQYEMHGPSEDLVVQIEGEGEGEGIPENFFGVKEEEGLGSVEEPHTKLRKYFPETWIWDLVVVNSAGVAEVGVTVPDTITEWKAGAFCLSEDAGLGISSTASLRAFQPFFVELTMPYSVIRGEAFTLKATVLNYLPKCIRVSVQLEASPAFLAVPVEKEQAPHCICANGRQTVSWAVTPKSLGNVNFTVSAEALESQELCGTEVPSVPEHGRKDTVIKPLLVEPEGLEKETTFNSLLCPSGGEVSEELSLKLPPNVVEESARASVSVLGDILGSAMQNTQNLLQMPYGCGEQNMVLFAPNIYVLDYLNETQQLTPEIKSKAIGYLNTGYQRQLNYKHYDGSYSTFGERYGRNQGNTWLTAFVLKTFAQARAYIFIDEAHITQALIWLSQRQKDNGCFRSSGSLLNNAIKGGVEDEVTLSAYITIALLEIPLTVTHPVVRNALFCLESAWKTAQEGDHGSHVYTKALLAYAFALAGNQDKRKEVLKSLNEEAVKKDNSVHWERPQKPKAPVGHFYEPQAPSAEVEMTSYVLLAYLTAQPAPTSEDLTSATNIVKWITKQQNAQGGFSSTQDTVVALHALSKYGAATFTRTGKAAQVTIQSSGTFSSKFQVDNNNRLLLQQVSLPELPGEYSMKVTGEGCVYLQTSLKYNILPEKEEFPFALGVQTLPQTCDEPKAHTSFQISLSVSYTGSRSASNMAIVDVKMVSGFIPLKPTVKMLERSNHVSRTEVSSNHVLIYLDKVSNQTLSLFFTVLQDVPVRDLKPAIVKVYDYYETDEFAIAEYNAPCSKDLGNADYKDDDDKGASHHHHHH

The assay deals with Protease Mixtures. The experiment in a line: cell-based or functional assay.
As to B1, the Protease Inhibition (% of WT); Protease Mixtures, IGD Substrate was 190 % of WT.
The same measure for B2: 140 % of WT; for B3: 140 % of WT.
To B4 belongs 210 % of WT.

Values taken from US20230250154A1.
